# B1: Lead CXCR5 Antibody (humanized IgG4 anti-CXCR5 antibody) (antibody, V domains shown)
# VH: QVQLKESGPGLVAPSESLSITCTVSGFSLIDYGVNWIRQPPGKGLEWLGVIWGDGTTYYNPSLKSRLSISKDNSKSQVFLKVTSLTTDDTAMYYCARIVYWGQGTLVTVSA
# VL: DIVMTQAAPSVAVTPGASVSISCRSSKSLLHSSGKTYLYWFLQRPGQSPQLLIYRLSSLASGVPDRFSGSGSGTAFTLRISRVEAEDVGVYYCMQHLEYPYTFGGGTKLEIKR
# Columns and labels:
# [1] = target: 28mer peptide of the CXCR5 antigen; assay: antigen ELISA; PBS 155 mM, light stress, 24 h +40C
# [2] = target: 28mer peptide of the CXCR5 antigen; assay: antigen ELISA; 100 mg/mL formulation, +5C, 1 month
# [3] = target: 28mer peptide of the CXCR5 antigen; assay: antigen ELISA; 100 mg/mL formulation, +5C, initial
# [4] = target: 28mer peptide of the CXCR5 antigen; assay: antigen ELISA; PBS 155 mM, polypropylene, 24 h +40C
# [5] = target: 28mer peptide of the CXCR5 antigen; assay: antigen ELISA; 100 mg/mL formulation, -20C, 1 month
# [6] = target: 28mer peptide of the CXCR5 antigen; assay: antigen ELISA; 100 mg/mL formulation, -20C, initial
# [7] = target: 28mer peptide of the CXCR5 antigen; assay: antigen ELISA; 100 mg/mL formulation, +5C, 3 months
# [8] = target: 28mer peptide of the CXCR5 antigen; assay: antigen ELISA; 100 mg/mL formulation, +5C, 6 months
# [9] = target: 28mer peptide of the CXCR5 antigen; assay: antigen ELISA; 100 mg/mL formulation, +5C, 9 months
# [10] = target: 28mer peptide of the CXCR5 antigen; assay: antigen ELISA; 100 mg/mL formulation, +25C, 1 month
# [11] = target: 28mer peptide of the CXCR5 antigen; assay: antigen ELISA; 100 mg/mL formulation, +25C, initial
# [12] = target: 28mer peptide of the CXCR5 antigen; assay: antigen ELISA; 100 mg/mL formulation, -20C, 3 months
# [13] = target: 28mer peptide of the CXCR5 antigen; assay: antigen ELISA; 100 mg/mL formulation, -20C, 6 months
# [14] = target: 28mer peptide of the CXCR5 antigen; assay: antigen ELISA; 100 mg/mL formulation, -20C, 9 months
# [15] = target: 28mer peptide of the CXCR5 antigen; assay: antigen ELISA; 100 mg/mL formulation, +5C, 12 months
# [16] = target: 28mer peptide of the CXCR5 antigen; assay: antigen ELISA; 100 mg/mL formulation, +5C, 15 months
# [17] = target: 28mer peptide of the CXCR5 antigen; assay: antigen ELISA; 100 mg/mL formulation, +5C, 18 months
# [18] = target: 28mer peptide of the CXCR5 antigen; assay: antigen ELISA; 100 mg/mL formulation, +25C, 3 months
# [19] = target: 28mer peptide of the CXCR5 antigen; assay: antigen ELISA; 100 mg/mL formulation, +25C, 6 months
# [20] = target: 28mer peptide of the CXCR5 antigen; assay: antigen ELISA; 100 mg/mL formulation, -20C, 12 months
# [21] = target: 28mer peptide of the CXCR5 antigen; assay: antigen ELISA; 100 mg/mL formulation, -20C, 18 months
# [22] = target: 28mer peptide of the CXCR5 antigen; assay: antigen ELISA; citrate pH 6.0 prototype B, 20 mg/mL, T0
# [23] = target: 28mer peptide of the CXCR5 antigen; assay: antigen ELISA; citrate pH 6.0 prototype C, 20 mg/mL, T0
# [24] = target: 28mer peptide of the CXCR5 antigen; assay: antigen ELISA; acetate pH 5.5 prototype C, 20 mg/mL, T0
# [25] = target: 28mer peptide of the CXCR5 antigen; assay: antigen ELISA; acetate pH 5.5 prototype D, 20 mg/mL, T0
# [26] = target: 28mer peptide of the CXCR5 antigen; assay: antigen ELISA; PBS 155 mM, clear glass type I, 24 h +40C
# [27] = target: 28mer peptide of the CXCR5 antigen; assay: antigen ELISA; PBS 155 mM, 1 h purged with air, 24 h +40C
# [28] = target: 28mer peptide of the CXCR5 antigen; assay: antigen ELISA; histidine pH 5.0 prototype A, 20 mg/mL, T0
# [29] = target: 28mer peptide of the CXCR5 antigen; assay: antigen ELISA; histidine pH 5.0 prototype D, 20 mg/mL, T0
# [30] = target: 28mer peptide of the CXCR5 antigen; assay: antigen ELISA; PBS 155 mM, clear glass type I as T0, 24 h +40C
# [31] = target: 28mer peptide of the CXCR5 antigen; assay: antigen ELISA; histidine pH 5.0 prototype B (table title LA_09_029B), 20 mg/mL, T0
binder,measurement,setting,value
B1,EC50%,[1],72.3%
same,Potency (Antigen ELISA) EC50 value (in comparison to reference),[2],105%
same,Potency (Antigen ELISA) EC50 value (in comparison to reference),[3],75%
same,EC50%,[4],107%
same,Potency (Antigen ELISA) EC50 value (in comparison to reference),[5],107%
same,Potency (Antigen ELISA) EC50 value (in comparison to reference),[6],75%
same,Potency (Antigen ELISA) EC50 value (in comparison to reference),[7],95%
same,Potency (Antigen ELISA) EC50 value (in comparison to reference),[8],97%
same,Potency (Antigen ELISA) EC50 value (in comparison to reference),[9],92%
same,Potency (Antigen ELISA) EC50 value (in comparison to reference),[10],121%
same,Potency (Antigen ELISA) EC50 value (in comparison to reference),[11],75%
same,Potency (Antigen ELISA) EC50 value (in comparison to reference),[12],84%
same,Potency (Antigen ELISA) EC50 value (in comparison to reference),[13],96%
same,Potency (Antigen ELISA) EC50 value (in comparison to reference),[14],101%
same,Potency (Antigen ELISA) EC50 value (in comparison to reference),[15],93%
same,Potency (Antigen ELISA) EC50 value (in comparison to reference),[16],114%
same,Potency (Antigen ELISA) EC50 value (in comparison to reference),[17],119%
same,Potency (Antigen ELISA) EC50 value (in comparison to reference),[18],96%
same,Potency (Antigen ELISA) EC50 value (in comparison to reference),[19],104%
same,Potency (Antigen ELISA) EC50 value (in comparison to reference),[20],96%
same,Potency (Antigen ELISA) EC50 value (in comparison to reference),[21],127%
same,EC50%,[22],104%
same,EC50%,[23],104%
same,EC50%,[24],142%
same,EC50%,[25],91%
same,EC50%,[26],131%
same,EC50%,[27],84.3%
same,EC50%,[28],174%
same,EC50%,[29],169%
same,EC50%,[30],62.3%
same,EC50%,[31],118%

# Reference: patent US20170232104A1
